Like-named read-outs stand apart in the source and are kept apart here.
Key:
[1] = AUC
[2] = AUC; remark: listed apart in the source

Substance	% aggregates (20-1000 S area) [1] [%]	% monomer (1-20 S area) [1] [%]	% aggregates (20-1000 S area) [2] [%]	% monomer (1-20 S area) [2] [%]	% aggregates (20-1000 S area), Hsp70 co-expressed [1] [%]	% aggregates (20-1000 S area), average of all runs [1] [%]	% monomer (1-20 S area), Hsp70 co-expressed [1] [%]	% monomer (1-20 S area), average of all runs [1] [%]
GFP-HttQ28 (huntingtin exon 1 fragment with 28 glutamines fused to GFP, expressed in C. elegans)	70	30						
GFP-HttQ74 (huntingtin exon 1 fragment with 74 glutamines fused to GFP, expressed in C. elegans)	97	3						
HttQ25-eGFP (huntingtin exon 1 fragment with 25 glutamines fused to eGFP, expressed in D. melanogaster)	66	34	65	35	62	64.7	38	35.3
HttQ46-eGFP (huntingtin exon 1 fragment with 46 glutamines fused to eGFP, expressed in D. melanogaster)	76	24	79	21	78	83.2	22	16.8
HttQ72-eGFP (huntingtin exon 1 fragment with 72 glutamines fused to eGFP, expressed in D. melanogaster)	93	7	90	10		93.3		6.7
HttQ97-eGFP (huntingtin exon 1 fragment with 97 glutamines fused to eGFP, expressed in D. melanogaster)	82	18	86	14	91	85.6	9	14.7

Reference: paper PMC5639329
